This note sets out measurements from US20250388907A1, “MULTISPECIFIC POLYNUCLEOTIDE NANOSTRUCTURES FOR CANCER DETECTION AND THERAPY” (Atom Bioworks, Inc., priority 2021, published 2025).

Several values for one entry are separate records, joined by “and”; a condition that tells them apart may be missing. Equal values may be shown once. Read-outs that look alike come from different tables or passages of the source.

One data set concerns MM1S cells. Briefly: MTT cell killing assay. It counts as cell-based, Human. Conditions: Example 3: 24 hours treatment, MTT after 48 hours; daunorubicin 40 μM; daunorubicin-loaded aptamers 4 μM and 2 μM. The procedure: (§1) Daunorubicin-loaded aptamers were then diluted across various concentrations: 4 μM, 2 μM, 0.2 μM, and 0.02 μM. Untreated cells were used as a negative killing control. 10% DMSO was used as a positive killing control. 40 μM daunorubicin was also used as a positive killing control but one that matched the current National Comprehensive Cancer Network (NCCN) guidelines for AML daunorubicin chemotherapy dosing. Cells were incubated with their respective treatments for 24 hours before they were washed with cell medium. After 48 hours, the viability of all cells were assessed using MTT assays. All conditions were performed in triplicate for standard error analysis. MM1S cells were used as negative control in the assays having aptamers at 4 μM and 2 μM, respectively.
Daunorubicin-loaded aptamers were prepared as described in Example 3. The killing activity of daunorubicin-loaded aptamers alone and daunorubicin-loaded aptamers on various networks of polynucleotides, i.e., 3x3v1 nets and TRD1 tiles on KASUMI-1 cells (an AML cell line) were assessed using the procedures as described in Example 3. […]
(Tetrazolium assays rely on reduction of a dye to a coloured formazan, in cell work by metabolically active cells.)

For another data set, the system named is KASUMI-1 cells. As to the kind of experiment: MTT cell killing assay. Conditions: for ΔFold over Free (3x3v1): IC50 on 3x3v1 net versus free aptamer; for ΔFold over Free (TRD1): IC50 on TRD1 versus free aptamer. It counts as cell-based, Human. The method, then: as §1
Daunorubicin-loaded aptamers were prepared as described in Example 3. The killing activity of daunorubicin-loaded aptamers alone and daunorubicin-loaded aptamers on various networks of polynucleotides, i.e., 3x3v1 nets and TRD1 tiles on KASUMI-1 cells (an AML cell line) were assessed using the procedures as described in Example 3. Additional negative killing controls were added to control for any inherent nonspecific killing effects by the networks of polynucleotides or aptamers: “3x3v1 net (Empty)” is 3x3v1 net without aptamers (therefore, no daunorubicin), “TRD1 (Empty)” is TRD1 without aptamers (therefore, no daunorubicin), “Scramble Aptamer 1”, “Scramble Aptamer 2”, and “Scramble Aptamer 3” were three oligos with lengths and A:T:C:G ratios similar to the tested aptamers but whose nucleotide sequences were randomized but also loaded with daunorubicin. 0.4 μM Daunorubicin were intercalated into aptamers across all conditions.
KASUMI-1 cells were cultured and incubated with all five aptamers (each loaded with daunorubicin) across six concentrations: 10 nM, 1 nM, […] and 100 fM. 10% DMSO, 40 μM daunorubicin, 4 μM daunorubicin, and 0.4 μM daunorubicin were used as positive killing controls. 3x3v1 net (Empty), TRD1 (Empty), Scramble Aptamer 1, Scramble Aptamer 2, and Scramble Aptamer 3 were negative killing controls. Incubation and washing procedures were as described in Experiment 3. After 48 hours, the samples were measured for viability via MTT assay. Data points were plotted and unpaired student's t—tests were performed to determine significance. For IC50 calculations, the concentrations were transformed to the logarithmic equivalent followed by normalization of the relative cell viability on a scale of 0-100. The normalized viability was subjected to nonlinear regression against the logarithmically converted inhibitor concentrations in the three parameters variable slope mode to determine the IC50. […]
ABWT050902 aptamers with D1 dock sites were loaded with daunorubicin as described previously. Aptamers were then immobilized on PTR45 and PTR86 (please refer to FIG. 17B and FIG. 17C). PTR45 was loaded with 20 ABWT050902 D1 aptamers, whereas PTR86 were loaded with 40. KASUMI-1 cells were grown, incubated with analytes, and measured via MTT cell killing assays as described previously.

The test system of a further data set is mouse IgG. Briefly: SPR binding assay of Protein G activity, Biacore CM5 chip. The conditions noted are these: mouse IgG immobilized on CM5 chip, equivalent conjugate amount. The method, then: We used a sulfo-SMCC linker to conjugate an oligo (complementary to 3x3v1 docking sites) bearing a 5′ amine to the N terminal cysteine sulfhydryl R group on 6xHis-tagged recombinant Protein G (the oligo also bore a 3′ biotin for later purification). This was performed at room temperature in 1x phosphate buffered saline (PBS), pH 7.4. Oligo functionalization with sulfo-SMCC was performed first (as is typical), followed by two Zeba column (7 kDa molecular weight cutoff) cleanups to remove the excess sulfo-SMCC. Functionalized oligos were then placed in molar excess to Cys-Protein G. Purification proceeded via usage of monomeric avidin resin (to remove any unconjugated Cys-Protein G) followed by Ni^2+-NTA resin (to remove any unconjugated oligos). Oligo-Protein G conjugates were then docked to 3x3v1 (27 docking sites) and 3x3v2 (9 docking sites) nets and assayed for activity on SPR binding assays.

The target in a further data set is CD117 (c-KIT) (UniProt P10721 P10721:26-524). Briefly: SPR; aptamer alone, CD117 immobilized on CM5 chip. Conditions: tags: immobilized on Biacore CM5 chip; label: 5' FAM (flow cytometry). The procedure:
Next, surface plasmon resonance (SPR) assays were performed to assess the ability of networks of polynucleotides to improve the binding affinity of an aptamer. Aptamer ABWT050902 (a CD 117 binder) was folded as previously described. Aptamers alone, and aptamers on a TRD1 (as illustrated in FIG. 2) were prepared at varying concentrations and flowed over a CM5 sensor chip on a Biacore SPR immobilized with CD117. The inter-binder distances of the 96 uniquely addressable docking loci for CD 117 binders was 5 nm. Concentrations were normalized to total aptamer amount.

The target in the next data set is CD117 (Homo sapiens, UniProt P10721). Briefly: SPR binding assay, Biacore CM5 chip. The conditions noted are these: CD117 immobilized on CM5 chip, concentrations normalized to total aptamer amount. (In general: SPR reads the build-up and loss of mass on a sensor chip optically.)
Data set [1] can be described thus: Kinetic fluorescent assay of daunorubicin release over time. Conditions: free daunorubicin in supernatant buffer. The text has this: Despite both “ABWT050902 Alone, With Daunorubicin” and “ABWT050902 on TRD1” conditions beginning the assay at the same time, the former began the assay with higher fluorescence of 400.0+ RFUs compared to the latter. This is because more free daunorubicin was in the supernatant buffer of “ABWT050902 Alone, with Daunorubicin” compared to “ABWT050902 on TRD1”.

Setting [2] is: KASUMI-1, MTT after 48 hours, daunorubicin or daunorubicin-loaded aptamer alone, read-out: IC50 (pM) Free.
[3] abbreviates: KASUMI-1, daunorubicin-loaded aptamer immobilized on 3x3v1 net, read-out: IC50 (pM) 3x3v1.
[4] abbreviates: KASUMI-1, daunorubicin-loaded aptamer immobilized on 3x3v1 net, read-out: IC90 (pM) 3x3v1.
Where [5] appears, read: KASUMI-1, daunorubicin-loaded aptamer immobilized on TRD1, read-out: IC50 (pM) TRD1.
The mark [6] stands for this setting: KASUMI-1, daunorubicin-loaded aptamer immobilized on TRD1, read-out: IC90 (pM) TRD1.

Chain of CD117 (P10721 26-976): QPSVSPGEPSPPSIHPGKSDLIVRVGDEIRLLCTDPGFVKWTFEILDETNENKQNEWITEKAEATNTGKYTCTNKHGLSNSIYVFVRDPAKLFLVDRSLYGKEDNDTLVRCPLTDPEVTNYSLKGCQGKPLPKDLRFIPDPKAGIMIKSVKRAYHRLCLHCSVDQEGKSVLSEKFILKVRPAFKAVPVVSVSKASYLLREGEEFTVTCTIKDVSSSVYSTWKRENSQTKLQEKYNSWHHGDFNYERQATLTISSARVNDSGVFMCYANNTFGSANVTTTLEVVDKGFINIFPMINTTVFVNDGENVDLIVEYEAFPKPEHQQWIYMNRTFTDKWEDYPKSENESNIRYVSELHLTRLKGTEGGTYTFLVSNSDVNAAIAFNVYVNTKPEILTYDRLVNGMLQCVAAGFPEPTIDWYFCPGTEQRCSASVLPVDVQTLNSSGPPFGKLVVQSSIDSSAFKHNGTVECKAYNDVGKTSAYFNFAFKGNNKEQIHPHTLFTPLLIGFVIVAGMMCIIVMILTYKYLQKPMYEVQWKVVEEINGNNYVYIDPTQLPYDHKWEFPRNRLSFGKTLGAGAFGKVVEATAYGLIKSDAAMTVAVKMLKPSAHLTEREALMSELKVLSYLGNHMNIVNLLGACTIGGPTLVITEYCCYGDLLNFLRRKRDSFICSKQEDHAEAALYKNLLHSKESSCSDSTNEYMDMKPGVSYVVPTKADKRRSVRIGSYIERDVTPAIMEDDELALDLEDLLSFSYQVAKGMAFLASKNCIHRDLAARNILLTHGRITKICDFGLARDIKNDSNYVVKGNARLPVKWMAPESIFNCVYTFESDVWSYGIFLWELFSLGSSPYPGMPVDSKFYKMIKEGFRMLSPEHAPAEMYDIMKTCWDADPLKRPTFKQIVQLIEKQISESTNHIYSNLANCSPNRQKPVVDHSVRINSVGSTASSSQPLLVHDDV
Chain of CD117 (c-KIT) (P10721 26-524, one chain of several): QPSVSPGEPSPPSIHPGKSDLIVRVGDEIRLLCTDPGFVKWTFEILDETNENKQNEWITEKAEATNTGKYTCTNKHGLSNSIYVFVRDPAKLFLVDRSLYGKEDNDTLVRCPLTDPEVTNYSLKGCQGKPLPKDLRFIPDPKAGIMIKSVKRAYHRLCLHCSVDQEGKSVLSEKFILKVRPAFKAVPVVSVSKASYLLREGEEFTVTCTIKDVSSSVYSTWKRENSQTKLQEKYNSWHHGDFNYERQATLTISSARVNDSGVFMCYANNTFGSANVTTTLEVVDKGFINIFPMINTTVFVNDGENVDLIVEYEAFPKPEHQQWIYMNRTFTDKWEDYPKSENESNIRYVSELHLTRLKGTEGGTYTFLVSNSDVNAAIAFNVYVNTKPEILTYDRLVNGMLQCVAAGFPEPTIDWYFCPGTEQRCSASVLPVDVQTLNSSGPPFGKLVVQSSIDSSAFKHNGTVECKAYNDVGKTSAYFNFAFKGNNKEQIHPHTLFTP

The term IC50 denotes the concentration that inhibits the measured activity by half. Take `COc1cccc2c1C(=O)c1c(O)c3c(c(O)c1C2=O)C[C@@](O)(C(C)=O)C[C@@H]3O[C@H]1C[C@H](N)[C@H](O)[C@H](C)O1` [Daunorubicin, daunorubicin, reference compound]: the “killing of MM1S cells” value in the data set with MM1S cells is given as “approximately 50%”. Also, in the data set with KASUMI-1 cells (Example 3: 24 hours treatment, MTT after 48 hours, daunorubicin 40 μM, daunorubicin-loaded aptamers 4-0.02 μM), the “killing of KASUMI-1 cells” value was “approximately 20%”. In addition, the 50% inhibitory concentration (IC50) in the data set with KASUMI-1 cells (Homo sapiens, Kasumi 1, 48 h, read-out: IC50 (pM) Free) amounted to 58400 pM.

B1: Oligo-Protein G conjugates: docking oligo conjugated via sulfo-SMCC linker to 6xHis-tagged recombinant Protein G (conjugate)
chain: TYKLILNGKTLKGETTTEAVDAATAEKVFKQYANDNGVDGEWTYDDATKTFTVTEKPEVIDASELTPAVTTYKLVINGKTLKGETTTEAVDAATAEKVFKQYANDNGVDGEWTYDDATKTFTVTEKPEVIDASELTPAVTTYKLVINGKTLKGETTTKAVDAETAEKAFKQYANDNGVDGVWTYDDATKTFTVTE
Turning to B1, the “relative response, binding to mouse IgG” value in the data set on mouse IgG was around 145 RUs.

B2: 3x3v2-Conjugate: Oligo-Protein G conjugates immobilized on 3x3v2 nets (conjugate)
chain: TYKLILNGKTLKGETTTEAVDAATAEKVFKQYANDNGVDGEWTYDDATKTFTVTEKPEVIDASELTPAVTTYKLVINGKTLKGETTTEAVDAATAEKVFKQYANDNGVDGEWTYDDATKTFTVTEKPEVIDASELTPAVTTYKLVINGKTLKGETTTKAVDAETAEKAFKQYANDNGVDGVWTYDDATKTFTVTE
As for B2, in the data set on mouse IgG, the “relative response, binding to mouse IgG” value is around 170 RUs.

B3: ABWT050902 (ssDNA)
DNA: ATCCAGAGTGACGCAGCACCGCCCATGTCGAATAGGTGCCACGTAGGGACTTGGACACGGTGGCTTAGT
Broadly, the Kd is the equilibrium constant for the complex coming apart. The low end stands for a tighter complex, the high end for a looser complex. B3 had a Kd with CD117 (c-KIT) of 1220 nM.

B4: ABWT050902: CD117-binding aptamer, SEQ ID NO: 1; FAM-labeled or daunorubicin-loaded in tests (nucleic acid)
chain: ATCCAGAGTGACGCAGCACCGCCCATGTCGAATAGGTGCCACGTAGGGACTTGGACACGGTGGCTTAGT
modifications: FAM label or daunorubicin loading in tests, chemistry not fully specified
One may read the IC90 as the concentration at which the effect reaches the 90% level. Take B4: the dissociation constant (Kd) with CD117 is ~1220 nM and 1220 nM. Further, the “ΔFold over Free (3x3v1)” value with KASUMI-1 cells was found to be 2.4x. Also, the results for the IC50 in the data set with KASUMI-1 cells (setting [2]) and in the data set on KASUMI-1 cells (setting [3]) were 529 pM and 218 pM, respectively. Moreover, the IC90 with KASUMI-1 cells (setting [4]) was 61800 pM. Besides, in data set [1], the “fluorescence at the beginning of the daunorubicin release assay” value was at least 400.0 RFUs.

B5: ABWT050904: CD117-binding aptamer, SEQ ID NO: 2 (nucleic acid)
chain: ATCCAGAGTGACGCAGCACGAGCCTTGTGTCGTTCGGAGTGCTGGTCCACGACTACTATTGGACACGGTGGCTTAGT
modifications: listed as DNA, chemistry not fully specified
Regarding B5, the “ΔFold over Free (3x3v1)” value with KASUMI-1 cells is 4.2x. The IC50 worked out at 976 pM with KASUMI-1 cells (setting [2]) and 233 pM with KASUMI-1 cells (setting [3]). Further, in the data set on KASUMI-1 cells (setting [4]), the IC90 is 17600 pM.

B6: #1: CD117-binding aptamer, SEQ ID NO: 3 (nucleic acid)
chain: GAGGCATACCAGCTTATTCAAGGGGCCGGGGCAAGGGGGGGGTACCGTGGTAGGACATAGTAAGTGCAATCTGCGAA
modifications: listed as DNA, chemistry not fully specified
As for B6, the “ΔFold over Free (3x3v1)” value with KASUMI-1 cells stood at 3.6x. The “ΔFold over Free (TRD1)” value in the data set on KASUMI-1 cells amounted to 5.6x. For the same molecule, the IC50 is 531 pM in the data set on KASUMI-1 cells (setting [2]), 147 pM with KASUMI-1 cells (setting [3]) and 95 pM in the data set with KASUMI-1 cells (setting [5]). Further, the IC90 with KASUMI-1 cells (KASUMI-1, daunorubicin-loaded aptamer alone, read-out: IC90 (pM) Free) turned out to be 108000 pM; with KASUMI-1 cells (setting [4]) it was 208000 pM; with KASUMI-1 cells (setting [6]) it was 165000 pM.

B7: ZW25: CD123-binding aptamer, SEQ ID NO: 4 (nucleic acid)
chain: TGCGTGTGTAGTGTGTCTGGGCTACATCGATGAGCTGCCTAGGGTCCCTCTTAGGGATTTGGGCGGG
modifications: listed as DNA, chemistry not fully specified
For the molecule B7, the “ΔFold over Free (3x3v1)” value with KASUMI-1 cells worked out at 8.0 x. In the data set with KASUMI-1 cells, the “ΔFold over Free (TRD1)” value came out at 34.7 x. Further, the IC50 in the data set on KASUMI-1 cells (setting [2]) came to 3540 pM; with KASUMI-1 cells (setting [3]), 445 pM; in the data set on KASUMI-1 cells (setting [5]), 102 pM. Also, the IC90 stood at 128000 pM with KASUMI-1 cells (setting [4]) and 7830 pM with KASUMI-1 cells (setting [6]).

B8: CY30: CD123-binding aptamer, SEQ ID NO: 5 (nucleic acid)
chain: TGCGTGTGTACTGTGTCTGGTCCCGTAGCTACTAGCGAACTCCCTGCCTCTTAGGGATTTGGGCGG
modifications: listed as DNA, chemistry not fully specified
As to B8, the “ΔFold over Free (3x3v1)” value in the data set with KASUMI-1 cells is reported as 5.5 x. Also, the “ΔFold over Free (TRD1)” value in the data set on KASUMI-1 cells stood at 38.1 x. Moreover, the IC50 came out at 5070 pM with KASUMI-1 cells (setting [2]), 931 pM in the data set on KASUMI-1 cells (setting [3]) and 133 pM in the data set on KASUMI-1 cells (setting [5]). In addition, the IC90 was determined as 8700 pM with KASUMI-1 cells (setting [4]) and 93600 pM in the data set with KASUMI-1 cells (setting [6]).
